Data set [1] addresses T1, PYL9 fused to the GAL4-DNA-binding domain (BD-PYL9) (Arabidopsis).
T1 construct: Y2H bait; also called pBD-GAL4-PYL9
In words: yeast two-hybrid, growth on media lacking His with and without ABA.

The next data set deals with T2, ABF2, Q9M7Q4.
T2 chain: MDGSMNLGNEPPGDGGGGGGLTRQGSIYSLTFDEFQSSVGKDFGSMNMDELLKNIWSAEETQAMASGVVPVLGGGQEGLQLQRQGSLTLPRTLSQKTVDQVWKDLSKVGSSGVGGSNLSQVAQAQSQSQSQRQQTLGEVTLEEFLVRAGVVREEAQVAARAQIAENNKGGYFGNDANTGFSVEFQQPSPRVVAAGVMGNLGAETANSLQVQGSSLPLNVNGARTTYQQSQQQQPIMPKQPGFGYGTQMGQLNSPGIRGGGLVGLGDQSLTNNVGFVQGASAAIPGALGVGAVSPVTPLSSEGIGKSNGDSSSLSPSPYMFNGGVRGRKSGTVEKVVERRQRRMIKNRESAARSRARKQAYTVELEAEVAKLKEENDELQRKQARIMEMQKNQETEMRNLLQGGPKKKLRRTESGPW

The target in a further data set is T3, PP2CA (Arabidopsis, UniProt P49598 1-399).
T3 construct: Endogenous protein co-purified from seedlings and identified by MS
T3 sequence (looked up): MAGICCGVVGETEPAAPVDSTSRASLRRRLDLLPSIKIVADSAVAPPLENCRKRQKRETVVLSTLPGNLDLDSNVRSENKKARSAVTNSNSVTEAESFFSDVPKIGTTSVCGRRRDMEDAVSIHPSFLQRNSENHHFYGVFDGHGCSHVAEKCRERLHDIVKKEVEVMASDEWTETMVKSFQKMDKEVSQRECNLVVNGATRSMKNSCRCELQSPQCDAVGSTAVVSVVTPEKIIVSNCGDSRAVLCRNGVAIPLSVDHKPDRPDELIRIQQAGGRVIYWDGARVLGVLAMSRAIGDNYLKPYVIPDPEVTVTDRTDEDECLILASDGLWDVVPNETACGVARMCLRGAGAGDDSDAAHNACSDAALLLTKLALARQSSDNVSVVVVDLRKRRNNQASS
In words: tandem affinity purification (anti-HA agarose, GFP-Trap) from seedlings, MS identification. The procedure:
(§1) Ten-day-old seedlings of the transgenic Arabidopsis plants expressing ProPYL9:PYL9-HA-YFP (FIG. 12A) were used for tandem affinity purification. Seedlings (3-4 g fresh weight) were treated for 1 h with ½ Murashige and Skoog medium containing 100 μM ABA or 30 min with ½ Murashige and Skoog medium containing 0.8 M mannitol; for the control, seedlings were treated with ½ Murashige and Skoog medium for 1 h. After treatment, samples were quickly frozen, ground in liquid N₂, homogenized in an equal volume of 2× immunoprecipitation (IP) buffer (100 mM Tris.HCl, pH 7.5, 300 mM NaCl, 2 mM EDTA, 0.2% Nonidet P-40, 2× protease mixture; Roche), and then, centrifuged at 30,000×g for 30 min at 4° C. The supernatant was passed through a 0.2-μM filter and centrifuged again at 30,000×g for 30 min at 4° C. After that, the supernatant was incubated with 40 μL 50% (vol/vol) slurry of monoclonal anti-HA agarose with antibody produced in mouse (A2095; Sigma), which was prebalanced with 1×IP buffer. The mixture was inverted for 1 h at 4° C. on a shaker. The agarose was then washed four times with 1×IP buffer, three times with high NaCl buffer (50 mM Tris.HCl, pH 7.5, 500 mM NaCl, 1 mM EDTA), and finally, three times with 1×IP buffer. The protein that had bound to the anti-HA agarose was eluted by HA peptide (ab13835; Abcam) with a concentration of […] in 200 μL 1×IP buffer overnight at 4° C. […]

A further data set addresses T4, ABA-insensitive 1 (ABI1) (Arabidopsis, UniProt P49597 1-434).
T4 construct: Endogenous protein in the TAP-MS experiment
T4 sequence (looked up): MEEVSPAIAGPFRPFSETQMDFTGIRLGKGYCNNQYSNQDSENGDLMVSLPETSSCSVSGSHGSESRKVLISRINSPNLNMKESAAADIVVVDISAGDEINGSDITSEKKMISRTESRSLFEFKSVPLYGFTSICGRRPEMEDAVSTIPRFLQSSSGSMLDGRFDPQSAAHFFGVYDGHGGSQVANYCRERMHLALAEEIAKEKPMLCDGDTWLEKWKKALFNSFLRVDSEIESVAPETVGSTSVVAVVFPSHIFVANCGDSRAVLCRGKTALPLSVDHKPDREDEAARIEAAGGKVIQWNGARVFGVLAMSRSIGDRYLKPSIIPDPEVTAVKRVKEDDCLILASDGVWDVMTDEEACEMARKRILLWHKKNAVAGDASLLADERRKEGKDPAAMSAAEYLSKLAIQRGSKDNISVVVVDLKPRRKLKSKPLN
The description is as above. The procedure:
as §1

B1: activating domain (AD) alone (other, UniProt P04386 768-881, looked up)
chain: ANFNQSGNIADSSLSFTFTNSSNGPNLITTQTNSQALSQPIASSNVHDNFMNNEITASKIDDGNNSKPLSPGWTDQTAYNAFGITTGMFNTTTMDDVYNYLFDDEDTPPNPKKE
notes: Negative control prey in the Y2H assay
For B1, the binding result in data set [1] is reported as “no binding”.

B2: SnRK2.6 (protein)
chain: MDRPAVSGPMDLPIMHDSDRYELVKDIGSGNFGVARLMRDKQSNELVAVKYIERGEKIDENVKREIINHRSLRHPNIVRFKEVILTPTHLAIVMEYASGGELFERICNAGRFSEDEARFFFQQLISGVSYCHAMQVCHRDLKLENTLLDGSPAPRLKICDFGYSKSSVLHSQPKSTVGTPAYIAPEVLLKKEYDGKVADVWSCGVTLYVMLVGAYPFEDPEEPKNFRKTIHRILNVQYAIPDYVHISPECRHLISRIFVADPAKRISIPEIRNHEWFLKNLPADLMNDNTMTTQFDESDQPGQSIEEIMQIIAEATVPPAGTQNLNHYLTGSLDIDDDMEEDLESDLDDLDIDSSGEIVYAM
For B2, the “SAG12-LUC expression in protoplasts” value with ABF2, Q9M7Q4 is “Expression of SnRK2.6 significantly enhanced the ability of ABF2 to increase SAG12-LUC expression in the presence of ABA”.

B3: HA- and YFP-tagged PYL9 (PYL9-HA-YFP) (receptor)
chain: MMDGVEGGTAMYGGLETVQYVRTHHQHLCRENQCTSALVKHIKAPLHLVWSLVRRFDQPQKYKPFVSRCTVIGDPEIGSLREVNVKSGLPATTSTERLELLDDEEHILGIKIIGGDHRLKNYSSILTVHPEIIEGRAGTMVIESFVVDVPQGNTKDETCYFVEALIRCNLKSLADVSERLASQDITQ
notes: Expressed under the native PYL9 promoter in transgenic Arabidopsis seedlings; also called ProPYL9:PYL9-HA-YFP; not shown: 3HA tag at the C terminus; YFP tag at the C terminus
Turning to B3, the binding result with PP2CA and with ABA-insensitive 1 (ABI1) was “binds” in each case.
